We go through two molecules from paper PMC8395514, “Characterization of Class V DyP-Type Peroxidase SaDyP1 from Streptomyces avermitilis and Evaluation of SaDyPs Expression in Mycelium” (International Journal of Molecular Sciences, 2021).

Data set [1] deals with T1, SaDyP1 (Streptomyces avermitilis, UniProt Q82QF8).
T1 construct: gene SAVERM_549
T1 sequence (Q82QF8 1-442): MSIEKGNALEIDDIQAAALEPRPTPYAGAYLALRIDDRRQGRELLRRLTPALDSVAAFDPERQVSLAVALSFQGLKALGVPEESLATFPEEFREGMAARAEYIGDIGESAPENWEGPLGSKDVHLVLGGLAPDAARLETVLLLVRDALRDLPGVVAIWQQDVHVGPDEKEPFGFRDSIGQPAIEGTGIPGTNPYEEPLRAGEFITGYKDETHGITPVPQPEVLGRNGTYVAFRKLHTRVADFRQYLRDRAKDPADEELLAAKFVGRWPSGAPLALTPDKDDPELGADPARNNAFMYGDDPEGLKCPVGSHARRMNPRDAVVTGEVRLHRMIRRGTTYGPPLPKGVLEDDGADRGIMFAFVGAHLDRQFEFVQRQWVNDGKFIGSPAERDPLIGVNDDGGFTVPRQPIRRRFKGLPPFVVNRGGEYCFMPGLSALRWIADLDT
The experiment in a line: initial-rate peroxidase assay, absorbance […] nm, Haldane fit. Format: biochemical. Particulars: 0.20 mM H2O2, 25 mM citrate, pH 4.0 in Table 3 and methods (pH 4.5 in Figure 5 legend), substrate inhibition model; substrate inhibition constant (Haldane).

Substrate in data set [2]: CCn1c(=NN=c2sc3cc(S(=O)(=O)O)ccc3n2CC)sc2cc(S(=O)(=O)O)ccc21
The experiment in a line: purified protein. Format: biochemical, Streptomyces avermitilis. The conditions noted are these: 0.20 mM H2O2, 25 mM citrate, pH 4.0 in Table 3 and methods (pH 4.5 in Figure 5 legend), substrate inhibition model.

Substrate in data set [3]: COc1cccc(OC)c1O
The experiment in a line: purified protein. Format: biochemical, Streptomyces avermitilis. The conditions noted are these: 0.20 mM H2O2, 25 mM citrate, pH 4.0.

`CCn1c(=NN=c2sc3cc(S(=O)(=O)O)ccc3n2CC)sc2cc(S(=O)(=O)O)ccc21` [ABTS, 2,2′-azinobis [3-ethylbenzothiazoline-6-sulfonic acid]]: the “Ki” value in data set [1] came to 13 mM.

B1: SaDyP1 (Streptomyces avermitilis MA-4680 = NBRC 14893) (protein)
chain: MSIEKGNALEIDDIQAAALEPRPTPYAGAYLALRIDDRRQGRELLRRLTPALDSVAAFDPERQVSLAVALSFQGLKALGVPEESLATFPEEFREGMAARAEYIGDIGESAPENWEGPLGSKDVHLVLGGLAPDAARLETVLLLVRDALRDLPGVVAIWQQDVHVGPDEKEPFGFRDSIGQPAIEGTGIPGTNPYEEPLRAGEFITGYKDETHGITPVPQPEVLGRNGTYVAFRKLHTRVADFRQYLRDRAKDPADEELLAAKFVGRWPSGAPLALTPDKDDPELGADPARNNAFMYGDDPEGLKCPVGSHARRMNPRDAVVTGEVRLHRMIRRGTTYGPPLPKGVLEDDGADRGIMFAFVGAHLDRQFEFVQRQWVNDGKFIGSPAERDPLIGVNDDGGFTVPRQPIRRRFKGLPPFVVNRGGEYCFMPGLSALRWIADLDT
With B1, in data set [2], the Km (commonly the concentration of substrate that gives half-maximal velocity) is 1200 µM; the kcat (as a rule, the number of substrate molecules converted per active site and unit of time at saturation) was 2.8 s⁻¹; the kcat/Km – broadly, the second-order rate constant that governs catalysis at low substrate concentration – was found to be 2400 M⁻¹ s⁻¹. Also, in data set [3], the Km is 610 µM, the kcat amounted to 0.23 s⁻¹ and the kcat/Km was 380 M⁻¹ s⁻¹.
